A short description of the data set: self-splicing fitness, log relative to wild type (ln ratio); higher = more splicing; Tetrahymena group I intron in knt gene, E. coli kanamycin selection, DiMSum; sequences stand for … in CUCUCU…GGAGGGAAAAGUUAUCAGGCAUGCACCUGGUAGCUAGUCUUUAAACCAAUAGAUUGCAUCGGUUUAAAAGGCAAGACCGUCAAAUUGCGGGAAAGGGGUCAACAGCCGUUCAGUACCAAGUCUCAGGGGAAACUUUGAGAUGGCCUUGCAAAGGGUAUGGUAAUAAGCUGACGGACAUGGUCCUAACCACGCAGCCAAGUCCUAAGUCAACAGAUCUUCUGUUGAUAUGGAUGCAGUUCACAGACUAAAUGUCGGUCGGGGAAGAUGUAUUCUUCUCAUAAGAUAUAGUCGGACCUCUCCUUAAUGGGAGCUAGCGGAUGAAGUGAUGCAACACUGGAGCCGCUGGGAACUAAUUUGUAUGCGAAAGUAUAUUGAUUAGUUUUGGAGUACUCGUGGUCG
The method in brief: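 Fitness was computed with DiMSum as the error-weighted combination of replicate fold changes, kanamycin versus none, each normalised to wild type. The library randomised all eight intron nucleotides of the P1ex region, with the intron placed in the knt kanamycin-resistance gene on pET-22b(+) in E. coli BL21(DE3). Six replicate transformations were grown overnight at 37°C or 30°C on LB agar with or without 25 μg/mL kanamycin, plus 100 μg/mL carbenicillin, 50 μM IPTG and 0.2% rhamnose. Pooled colonies were amplicon-sequenced on an Illumina HiSeq 2500.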

± gives the uncertainty stated by the source.

Consider UCCAAGCAAUAUUACGAGCG, for which the “self-splicing fitness (ln)” value by setting is: (30 °C) -1.96 ± 0.081; (37 °C) -0.978 ± 0.099.
Turning to CCCUAGCAAUAUUACGACGU, the “self-splicing fitness (ln)” value (30 °C) is -3.83 ± 0.29 and the “self-splicing fitness (ln)” value (37 °C) was -3.29 ± 0.47.
On the same counts, the results for GACAAGCAAUAUUACGUGUG are -2.78 ± 0.078 and -1.56 ± 0.083.
On the same counts, the results for GCAAAGCAAUAUUACGUACA are -1.31 ± 0.11 and -0.858 ± 0.13.
Take CGACAGCAAUAUUACGCAUA: the “self-splicing fitness (ln)” value runs as follows: (30 °C) -3.03 ± 0.18; (37 °C) -2.33 ± 0.18.
The corresponding values for UCAAAGCAAUAUUACGUAGC are -4 ± 0.31 and -2.52 ± 0.27.
The corresponding values for UGCCAGCAAUAUUACGUACC are -3.09 ± 0.22 and -1.98 ± 0.21.
UGCAAGCAAUAUUACGGCCU: the “self-splicing fitness (ln)” value was -0.521 ± 0.059 (30 °C) and -0.286 ± 0.079 (37 °C).
On the same counts, the results for ACUUAGCAAUAUUACGCUAU are -3.05 ± 0.24 and -2.09 ± 0.23.
In the case of UCUGAGCAAUAUUACGCUCC, the “self-splicing fitness (ln)” value (30 °C) is -2.04 ± 0.49.
For the sequence GUCCAGCAAUAUUACGUGGG, the “self-splicing fitness (ln)” value was -3.68 ± 0.13 (30 °C) and -2.36 ± 0.14 (37 °C).
The corresponding values for ACUGAGCAAUAUUACGCGCG are -1.14 ± 0.11 and -0.367 ± 0.12.
The corresponding values for CCCCAGCAAUAUUACGUCCA are -3.34 ± 0.19 and -3.2 ± 0.28.
On the same counts, the results for UUGAAGCAAUAUUACGGCAC are -0.928 ± 0.13 and -0.814 ± 0.17.
As to UUCGAGCAAUAUUACGCCAA, the “self-splicing fitness (ln)” value (30 °C) is -2.89 ± 0.48 and the “self-splicing fitness (ln)” value (37 °C) was -2.07 ± 0.27.
On the same counts, the results for GUUAAGCAAUAUUACGGCCG are -1.61 ± 0.2 and -0.597 ± 0.37.
For the sequence UCGGAGCAAUAUUACGUGUA, for the setting “37 °C”, the “self-splicing fitness (ln)” value is -1.29 ± 0.2.
Consider AGUCAGCAAUAUUACGGACU, for which the “self-splicing fitness (ln)” value was -2.86 ± 0.27 (30 °C) and -2.27 ± 0.29 (37 °C).
UCUCAGCAAUAUUACGUAUA: the “self-splicing fitness (ln)” value was -2.86 ± 0.17 (30 °C) and -1.32 ± 0.13 (37 °C).
On the same counts, the results for UUUCAGCAAUAUUACGUACU are -1.49 ± 0.15 and -0.647 ± 0.17.
Consider GACGAGCAAUAUUACGUUUA, for which the “self-splicing fitness (ln)” value (30 °C) was -2.06 ± 0.14 and the “self-splicing fitness (ln)” value (37 °C) is -0.752 ± 0.12.
With CACAAGCAAUAUUACGGGAC, the “self-splicing fitness (ln)” value is -3.48 ± 0.19 (30 °C) and -2.86 ± 0.2 (37 °C).
On to UACAAGCAAUAUUACGUAUC, for which the “self-splicing fitness (ln)” value by setting is: (30 °C) -3.94 ± 0.24; (37 °C) -2.69 ± 0.21.
As for GGCCAGCAAUAUUACGUUAG, the “self-splicing fitness (ln)” value runs as follows: (30 °C) -3.38 ± 0.26; (37 °C) -2.82 ± 0.34.
On the same counts, the results for CGCCAGCAAUAUUACGGUAC are -2.83 ± 0.095 and -1.52 ± 0.091.
In the case of AGAGAGCAAUAUUACGGUUG, the “self-splicing fitness (ln)” value (37 °C) was -1.45 ± 0.41.
Consider AGCAAGCAAUAUUACGAGGC, for which the “self-splicing fitness (ln)” value runs as follows: (30 °C) -4.52 ± 0.34; (37 °C) -2.51 ± 0.23.
On the same counts, the results for AGUGAGCAAUAUUACGAGGG are -3.75 ± 0.24 and -2.13 ± 0.35.
As to GUUUAGCAAUAUUACGUGAC, the “self-splicing fitness (ln)” value (37 °C) was -0.596 ± 0.41.
Regarding UUAGAGCAAUAUUACGACGU, the “self-splicing fitness (ln)” value runs as follows: (30 °C) -2.39 ± 0.17; (37 °C) -0.776 ± 0.21.
As for UCGAAGCAAUAUUACGUGGC, where the note is “37 °C”, the “self-splicing fitness (ln)” value was -2.78 ± 0.23.
AGUGAGCAAUAUUACGUUGU: the “self-splicing fitness (ln)” value by setting is: (30 °C) -4.07 ± 0.19; (37 °C) -1.78 ± 0.14.
As to GGCGAGCAAUAUUACGGUGG, the “self-splicing fitness (ln)” value reads like this: (30 °C) -3.31 ± 0.24; (37 °C) -2.07 ± 0.22.
On the same counts, the results for UGCCAGCAAUAUUACGUCAA are -1.93 ± 0.11 and -1.08 ± 0.093.
On the same counts, the results for UUUUAGCAAUAUUACGACUA are -0.401 ± 0.18 and 0.109 ± 0.14.
For the sequence CGAAAGCAAUAUUACGCCUG, the “self-splicing fitness (ln)” value by setting is: (30 °C) -0.16 ± 0.095; (37 °C) 0.392 ± 0.11.
As to ACGCAGCAAUAUUACGCCGC, the “self-splicing fitness (ln)” value (30 °C) was -3.68 ± 0.29 and the “self-splicing fitness (ln)” value (37 °C) is -2.42 ± 0.25.
The corresponding values for CAUGAGCAAUAUUACGUAGC are -1.64 ± 0.17 and -1.96 ± 0.26.
On the same counts, the results for CCGUAGCAAUAUUACGCCAG are -1.17 ± 0.16 and -0.533 ± 0.22.
Consider CGUGAGCAAUAUUACGGAGU, for which the “self-splicing fitness (ln)” value reads like this: (30 °C) -3.12 ± 0.23; (37 °C) -1.14 ± 0.4.
On the same counts, the results for CCAUAGCAAUAUUACGGCCA are -3.07 ± 0.37 and -3.3 ± 0.42.
Take CUAUAGCAAUAUUACGUGCC: the “self-splicing fitness (ln)” value (30 °C) is -2.54 ± 0.32.
Turning to CUGGAGCAAUAUUACGCAUC, under “37 °C”, the “self-splicing fitness (ln)” value was -0.757 ± 0.42.
On to AAUCAGCAAUAUUACGUCCA, for which the “self-splicing fitness (ln)” value was -0.876 ± 0.1 (30 °C) and -0.0432 ± 0.12 (37 °C).
With GGAAAGCAAUAUUACGCGUA, the “self-splicing fitness (ln)” value is -1.45 ± 0.14 (30 °C) and -1.52 ± 0.13 (37 °C).
On to AAAGAGCAAUAUUACGGGCU, for which the “self-splicing fitness (ln)” value reads like this: (30 °C) -3.06 ± 0.17; (37 °C) -3.58 ± 0.34.
On the same counts, the results for GGUCAGCAAUAUUACGAACA are -0.818 ± 0.14 and -0.749 ± 0.17.
On the same counts, the results for CUGGAGCAAUAUUACGGGAC are 0.251 ± 0.35 and -1.08 ± 0.41.
The corresponding values for UUACAGCAAUAUUACGAGAU are -2.96 ± 0.25 and -1.69 ± 0.24.
As to AACAAGCAAUAUUACGAGUU, the “self-splicing fitness (ln)” value reads like this: (30 °C) -3.35 ± 0.099; (37 °C) -1.5 ± 0.091.

The record behind these values is the supplement of paper PMC7877785.
